What was measured:
[1] = target: T1, ZNF410 ZF1-5 (GST removed) (Homo sapiens, UniProt Q86VK4 SEQ:217-366); experiment: structure; crystal structure 2.75 A, PDB 6WMI; details: tags: none (GST cleaved with PreScission protease); label: FAM 5' (top strand) in FP
T1 sequence: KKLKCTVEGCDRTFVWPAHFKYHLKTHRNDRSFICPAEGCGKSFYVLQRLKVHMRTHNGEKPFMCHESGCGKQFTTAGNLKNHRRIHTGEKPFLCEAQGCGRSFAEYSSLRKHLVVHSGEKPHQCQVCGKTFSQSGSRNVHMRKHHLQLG

[2] = test system: motifs from the CHD4 promoter and enhancer sites; experiment: EMSA with COS-7 nuclear extracts and radiolabeled probes; format: binding, human; details: COS nuclear extracts, FLAG-tagged constructs, radiolabeled CHD4 motif probes
Protocol: Nuclear extracts were prepared from COS-7 cells transiently transfected with ZNF410 full-length and ZNF410 ZF1-5 plasmids. FuGENE® 6 (Promega) was used to transfect 5 μg of vector into 100 mm plates of COS-7 cells. A pcDNA3 empty vector was used as control. Cells were harvested 48 hours after transfection and nuclear extracts prepared (Andrews, et al. (1991) Nucleic Acids Res., 19:2499).
EMSAs were performed (Crossley, et al. (1996) Mol. Cell Biol., 16:1695-1705). The sense oligonucleotide was labelled with [γ-^32P]-adenosine triphosphate (Perkin Elmer) and boiled at 100° C. for 1 minute before addition of the antisense oligonucleotide and annealing of probe via slow cooling from 100° C. to room temperature. Probes were purified using Quick Spin Columns for radio-labelled DNA Purification (Roche). Nuclear extracts were harvested from COS-7 cells and samples and loaded on a 6% native polyacrylamide gel in TBE buffer (45 mM Tris, 45 mM boric acid, 1 mM EDTA). A ‘COS empty’ control lane was included to show binding of any background endogenous protein to the probe. […] Gels were run at 250 V for 1 hour, 45 minutes at 4° C. then dried under vacuum. […]
ZNF410 contains five tandem C2H2-type zinc fingers (ZFs) potentially involved in DNA binding (FIG. 5A). […] Direct DNA binding by full length (FL) ZNF410 to sequences found at the CHD4 gene was assessed by electrophoretic mobility shift assays (EMSAs). […]

[3] = target: T2, endogenous ZNF410 (Homo sapiens, UniProt Q86VK4); experiment: RT-qPCR in HUDEP-2 cells overexpressing HA-tagged ZNF410 constructs; format: cell-based
T2 construct: endogenous in cells; host or cells: HUDEP-2 (HUDEP-2-Cas9) cells, differentiated
T2 sequence (Q86VK4 1-478): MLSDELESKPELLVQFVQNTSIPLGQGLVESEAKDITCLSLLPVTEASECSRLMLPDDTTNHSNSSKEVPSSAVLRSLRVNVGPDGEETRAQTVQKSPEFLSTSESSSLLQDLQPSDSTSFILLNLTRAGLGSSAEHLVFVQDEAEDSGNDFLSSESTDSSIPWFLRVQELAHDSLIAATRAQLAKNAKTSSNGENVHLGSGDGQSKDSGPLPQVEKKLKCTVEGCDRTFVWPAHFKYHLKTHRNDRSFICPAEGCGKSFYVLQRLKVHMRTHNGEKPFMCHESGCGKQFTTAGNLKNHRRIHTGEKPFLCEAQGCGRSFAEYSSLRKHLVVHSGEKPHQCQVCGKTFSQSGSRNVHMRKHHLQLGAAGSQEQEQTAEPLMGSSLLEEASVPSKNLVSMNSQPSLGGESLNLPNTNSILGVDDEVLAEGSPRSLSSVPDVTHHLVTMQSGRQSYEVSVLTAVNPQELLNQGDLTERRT
Protocol: HUDEP-2 cells were cultured and differentiated as described (Kurita, et al. (2013) PLoS One 8:e59890). Briefly, StemSpan™ Serum-Free Expansion Medium (SFEM) supplemented with 50 ng/ml human stem cell factor (SCF), 10 μM dexamethasone, 1 μg/ml doxycycline, 3 IU/ml erythropoietin and 1% penicillin/streptomycin was utilized for routine cell maintenance. Cell density was kept at 0.1-1×10^6/ml. HUDEP-2 cells were differentiated for 6-7 days in IMDM supplemented with 50 ng/ml human SCF, 3 IU/ml erythropoietin, 2.5% fetal bovine serum, 250 μg/ml holo-transferrin, 10 ng/ml heparin, 10 μg/ml insulin, 1 μg/ml doxycycline and 1% penicillin/streptomycin.
SgRNAs were cloned into a lentiviral U6-sgRNA-EFS-GFP/mCherry expression vector (LRG, Addgene: #65656) by BsmBI digestion. The ZNF410 cDNA (clone ID: OHu10535), CHD4 cDNA (clone ID: OHu28780) were purchased from GenScript and were sub-cloned into a lentiviral vector pSDM101-IRES-GFP. ZNF410 variants were sub-cloned into pSDM101-IRES-GFP vector. The N-terminal HA tag was introduced by PCR. For EMSA, the ZNF410 full length or different ZF versions were sub-cloned into mammalian expression vector pcDNA3.
Lentivirus was produced as described (Grevet, et al. (2018) Science 361:285-290). Briefly, 10-20 μg of expression vectors, 5-10 μg of pVSVG (pMD2.G) and 7.5-15 μg of psPAX2 package plasmids, and 80 μl of 1 mg/ml polyethylenimine (PEI) were mixed, incubated for 15-20 minutes, and added to HEK293T cells grown in 10 cm plates to above 90% confluence. Media were replaced 6-8 hours post transfection, virus was collected 24 hours and 48 hours post-transfection and pooled. For infection, virus-containing supernatant was mixed with the indicated cell lines with 8 μg/ml polybrene and 10 mM HEPES, and then spun at 2250 rpm for 1.5 hours at room temperature. Infected HUDEP-2 cells were selected for mCherry+ or GFP+ cell sorting at 48 hours post-infection.
Total RNA was purified using the RNeasy® Plus Mini Kit (Qiagen), including an on-column DNAse treatment using RNase-free DNase set (Qiagen) to remove genomic DNA. Reverse transcription was accomplished using iScript™ Supermix (Bio-Rad). qPCR reactions were prepared with Power SYBR® Green (ThermoFisher Scientific). Quantification was performed using the ΔΔCT method.
Overexpression of ZF1-5 but not ZF2-4 should compete with endogenous ZNF410 for chromatin binding, thus acting in a dominant-negative manner. To test this hypothesis, a construct containing HA-tagged ZF1-5 or ZF2-4 driven by the EF1α promoter was introduced via lentiviral infection into HUDEP-2 cells. As control, the expression of full-length HA-tagged ZNF410 was forced. […] Moreover, full-length HA-ZNF410 when overexpressed to similar levels to HA-ZF1-5 also produced similar binding patterns (FIG. 4A). […] Thus, the ZF region is sufficient for chromatin occupancy but insufficient for CHD4 gene activation. […] Finally, the impact of ZNF410 expression on γ-globin levels was also measured.

[4] = target: T3, ZNF410 ZF1-5 (GST fusion) (Homo sapiens, UniProt Q86VK4 SEQ:217-366); experiment: FP; no measurable binding up to 2.5 uM; shares 7/17 bp with consensus; details: tags: GST N-terminal (pGEX-6P-1, pXC2180); label: FAM 5' (top strand)
T3 sequence: T1 sequence
Protocol: To further gain insight into the molecular basis of how the ZNF410 tandem ZF domain recognizes its targeting DNA sequence, crystallization of the ZNF410-DNA complex was performed. The binding affinity of the ZNF410 ZF domain (ZF1-5) with the consensus motif was quantified by fluorescence polarization using purified GST fusion protein (Patel, et al. (2016) Methods Enzymol., 573:387-401). […] Next, the crystal structure of the ZF domain in complex with the same 17-bp oligo (5′-3′: […] (SEQ ID NO: 19); 3′-5′: […] (SEQ ID NO: 20)) containing the consensus motif was determined. The structure of the protein-DNA complex was solved by the single-wavelength anomalous diffraction (SAD) method (Hendrickson, et al. (1990) EMBO J., 9:1665-1672) at 2.75 Å resolution. As in conventional C2H2 ZF proteins (Wolfe, et al. (2000) Annu. Rev. Biophys. Biomol. Struct., 29:183-212), each of five fingers of ZNF410 comprises two strands and a helix, with two histidine residues in the helix together with one cysteine in each strand coordinating a zinc ion, forming a characteristic tetrahedral C2-Zn—H2 structural unit that confers rigidity to the fingers. When bound to DNA, ZF1-5 occupies the DNA major groove, with their α-helices toward DNA and the strands and the C2-Zn—H2 units facing outside (FIGS. 6B and C). […]

B1: ZNF410 consensus oligo 17 bp (dsDNA)
DNA 1: CACATCCCATAATAATG
DNA 2: CATTATTATGGGATGTG
Question: Does B1 bind [1]?
Answer: Result: binds

B2: ZNF410 FL: full-length tagged human ZNF410 (478 amino acids) overexpressed as control (protein)
chain: T2 sequence (Q86VK4 1-478)
modifications: left off: small tags and cut ends
notes: full-length tagged human ZNF410 (478 amino acids) overexpressed as control
Question: Which results are given for B2?
Answer: DNA binding in EMSA [2]: comparable binding to each of the four DNA probes; effect on CHD4 expression ([3]; overexpression in HUDEP-2 cells): increased; effect on γ-globin mRNA levels ([3]; overexpression in differentiated HUDEP-2 cells): slight decrease

B3: negative control oligo (dsDNA)
DNA 1: TCCACTGCCAGGACCTTT
DNA 2: AAAAGGTCCTGGCAGTGG
Question: Does B3 bind [4]?
Answer: Result: no binding
